Data reported in patent US20100104550A1 (ADELAIDE RESEARCH AND INNOVATION, published 2010).

Columns and labels:
[1] = biological target: EGF receptor (EGFR) on F98/EGFR rat glioma cells engineered to express 10^6 EGFR per cell (UniProt P00533 25-1210); assay: cell-based or functional assay
[2] = biological target: EGF receptor (EGFR) on MDA231luc cells (luciferase-expressing derivative of EGFR-positive human brea (human (human breast carcinoma cells), UniProt P00533 25-1210)); assay: cell-based or functional assay

B1: EGF-SubA fusion protein (Cys-tag, linker, human EGF, linker, SubA 22-347) (other)
chain: MKESCAKKFQRQHMDSGGGGSGGGGSGGGGSMGNSDSECPLSHDGYCLHDGVCMYIEALDKYACNCVVGYIGERCQYRDLKWWELRSMADIGSEKPWYFDAIGLTETTMSLTDKNTPVVVSVVDSGVAFIGGLSDSEFAKFSFTQDGSPFPVKKSEALYIHGTAMASLIASRYGIYGVYPHALISSRRVIPDGVQDSWIRAIESIMSNVFLAPGEEKIINISGGQKGVASASVWTELLSRMGRNNDRLIVAAVGNDGADIRKLSAQQRIWPAAYHPVSSVNKKQDPVIRVAALAQYRKGETPVLHGGGITGSRFGNNWVDIAAPGQNITFLRPDAKTGTGSGTSEATAIVSGVLAAMTSCNPRATATELKRTLLESADKYPSLVDKVTEGRVLNAEKAISMFCKKNYIPVRQGRMSEEL
IC50 of cytotoxicity toward F98/EGFR cells (72 h, Cell Proliferation Assay) [1]: 0.005 nM
fold difference in cytotoxicity, F98/EGFR cells against parental F-98 cells [1]: 500 fold
IC50 of cytotoxicity toward MDA-231luc cells (72 h, Cell Proliferation Assay) [2]: ~0.05 nM
